Measurements published in the RNAGym collection of RNA variant scans (doi:10.1093/molbev/msab373).

B1: Azoarcus group I ribozyme (parent)
chain: GUGCCUUGCGCCGGGAAACCACGCAAGGGAUGGUGUCAAAUUCGGCGAAACCUAAGCGCCCGCCCGGGCGUAUGGCAACGCCGAGCCAAGCUUCGGCGCCUGCGCCGAUGAAGGUGUAGAGACUAGACGGCACCCACCUAAGGCAAACGCUAUGGUGAAGGCAUAGUCCAGGGAGUGGCGAAAGUCACACAAACCGG

Variants of: B1
Assay: reverse-splicing fitness (ratio to wild type); higher = more active; in vitro selection; Mg2+ level not given
Outline: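 An in vitro group I ribozyme library with randomized positions was T7-transcribed and gel-purified. In triplicate, 10 pmol RNA in EPPS pH 7.5 was reacted with 50 pmoles of a 30-nt RNA substrate for 1 h at 37 °C across several added MgCl2 levels (1–48 mM), then stopped with EDTA. Products were reverse transcribed from a substrate-complementary primer, PCR-amplified and sequenced (HiSeq 4000). Fitness is a variant's read proportion after selection over that before, normalised to wild type.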

Variant	reverse-splicing fitness
A111U A120U A145C C150G C169U U176A	0.00301
A111U A120U A145C C150G C169U U176G	0.00228
A111U A120G A145U C150U C169G U176G	0.00496
A111U A120G A145U C150U C169G U176C	0.0378
A111U A120G A145U C150U C169G U176A	0.0274
A111U A120G A145U C150G C169A U176A	0.0103
A111U A120G A145U C150G C169A U176C	0.0105
A111U A120G A145U C150G C169A U176G	0.00496
A111U A120U A145U C169A U176A	0.00253
A111U A120U A145U C169A U176C	0.00283
A111U A120U A145U C169A U176G	0.00231
A111U A120G A145U C169G	0.213
A111U A120G A145U C169A	0.117
A111U A120G A145U C169U	0.164
A111U A120U A145U C150A U176G	0.00946
A111U A120U A145U C150A U176C	0.0269
A111U A120U A145U C150A U176A	0.0229
A111U A120U A145G C150A U176C	0.0415
A111U A120U A145G C150A U176A	0.0364
A111U A120U A145G C150A U176G	0.00868
A111U A120G A145U C150U	0.104

Variant	reverse-splicing fitness
A111U A120G A145U C150G	0.02
A111U A120G A145U C150A	0.0183
A111U A120G A145U C150G C169U	0.0212
A111U A120G A145U C150G C169A	0.0162
A111U A120G A145U C150G C169G	0.021
A111U A120U A145G U176A	0.27
A111U A120U A145G U176C	0.266
A111U A120U A145G U176G	0.0546
A111U A120G A145G C150U U176G	0.00725
A111U A120G A145U C150G C169U U176C	0.0151
A111U A120G A145U C150G C169U U176G	0.00433
A111U A120G A145U C150G C169U U176A	0.0147
A111U A120U A145C C150A C169G U176G	0.00184
A111U A120U A145C C150A C169G U176C	0.00308
A111U A120U A145C C150A C169G U176A	0.00297
A111U A120U A145G C169A	0.00419
A111U A120U A145G C169U	0.076
A111U A120U A145G C169G	0.0528
A111U A120G C150U U176C	0.0413
A111U A120G C150U U176G	0.00616
A111U A120G C150U U176A	0.0266

Variant	reverse-splicing fitness
A111U A120G C150G C169A U176A	0.00974
A111U A120G C150G C169A U176G	0.0057
A111U A120G C150G C169A U176C	0.00933
A111U A120G C150G U176G	0.00275
A111U A120G C150G U176A	0.00753
A111U A120G C150G U176C	0.0112
A111U A120U A145C C150U C169A U176C	0.00198
A111U A120U A145C C150U C169A U176A	0.00251
A111U A120U A145C C150U C169A U176G	0.00275
A111U A120G C150A C169G U176G	0.00494
A111U A120G C150A C169G U176A	0.0251
A111U A120G C150A C169G U176C	0.0291
A111U A120U A145C C150U U176A	0.0565
A111U A120U A145C C150U U176G	0.0208
A111U A120U A145C C150U U176C	0.0423
A111U A120U A145G C150U U176C	0.206
A111U A120U A145G C150U U176A	0.18
A111U A120U A145G C150U U176G	0.0253
A111U A120G A145U C169G U176C	0.045
A111U A120G A145U C169G U176G	0.00486
A111U A120G A145U C169G U176A	0.0309

Variant	reverse-splicing fitness
A111U A120U A145C C169G U176A	0.00441
A111U A120U A145C C169G U176G	0.00199
A111U A120U A145C C169G U176C	0.00515
A111U A120G A145U C150G U176G	0.00309
A111U A120G A145U C150G U176A	0.00927
A111U A120G A145U C150G U176C	0.0142
A111U A120G C150U C169U	0.0857
A111U A120G C150U C169G	0.112
A111U A120G C150U C169A	0.0593
A111U A120U A145U C150U C169A U176G	0.00264
A111U A120U A145U C150U C169A U176A	0.00308
A111U A120U A145U C150U C169A U176C	0.00309
A111U A120G A145G U176A	0.0417
A111U A120G A145G U176G	0.00558
A111U A120G A145G U176C	0.0543
A111U A120U A145U C169U	0.0617
A111U A120U A145U C169G	0.0519
A111U A120U A145U C169A	0.00401
A111U A120U A145U C150A C169U U176G	0.00245
A111U A120U A145U C150A C169U U176C	0.00324
A111U A120U A145U C150A C169U U176A	0.00294
